In the supplement of paper PMC9876800:

Tested on: peptide library, one residue held at a place counted from the S/T acceptor
Experiment: relative phosphorylation of the sub-library (ratio to the mean residue at this position); higher = residue favoured
Outline: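 Relative sub-library phosphorylation is a ratio to the mean residue at the same position. Purified recombinant kinases were incubated under kinase-specific conditions with biotinylated degenerate peptide sub-libraries, each fixing one residue at one position around a central Ser/Thr, using 50 μM peptide and 50 μM ATP spiked with γ-32P-ATP for 90 min. Spots captured on streptavidin membranes were phosphorimaged and quantified by densitometry.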

Chain of NEK9, construct: Full length (D347-732), human (Q8TD19 whole entry, looked up): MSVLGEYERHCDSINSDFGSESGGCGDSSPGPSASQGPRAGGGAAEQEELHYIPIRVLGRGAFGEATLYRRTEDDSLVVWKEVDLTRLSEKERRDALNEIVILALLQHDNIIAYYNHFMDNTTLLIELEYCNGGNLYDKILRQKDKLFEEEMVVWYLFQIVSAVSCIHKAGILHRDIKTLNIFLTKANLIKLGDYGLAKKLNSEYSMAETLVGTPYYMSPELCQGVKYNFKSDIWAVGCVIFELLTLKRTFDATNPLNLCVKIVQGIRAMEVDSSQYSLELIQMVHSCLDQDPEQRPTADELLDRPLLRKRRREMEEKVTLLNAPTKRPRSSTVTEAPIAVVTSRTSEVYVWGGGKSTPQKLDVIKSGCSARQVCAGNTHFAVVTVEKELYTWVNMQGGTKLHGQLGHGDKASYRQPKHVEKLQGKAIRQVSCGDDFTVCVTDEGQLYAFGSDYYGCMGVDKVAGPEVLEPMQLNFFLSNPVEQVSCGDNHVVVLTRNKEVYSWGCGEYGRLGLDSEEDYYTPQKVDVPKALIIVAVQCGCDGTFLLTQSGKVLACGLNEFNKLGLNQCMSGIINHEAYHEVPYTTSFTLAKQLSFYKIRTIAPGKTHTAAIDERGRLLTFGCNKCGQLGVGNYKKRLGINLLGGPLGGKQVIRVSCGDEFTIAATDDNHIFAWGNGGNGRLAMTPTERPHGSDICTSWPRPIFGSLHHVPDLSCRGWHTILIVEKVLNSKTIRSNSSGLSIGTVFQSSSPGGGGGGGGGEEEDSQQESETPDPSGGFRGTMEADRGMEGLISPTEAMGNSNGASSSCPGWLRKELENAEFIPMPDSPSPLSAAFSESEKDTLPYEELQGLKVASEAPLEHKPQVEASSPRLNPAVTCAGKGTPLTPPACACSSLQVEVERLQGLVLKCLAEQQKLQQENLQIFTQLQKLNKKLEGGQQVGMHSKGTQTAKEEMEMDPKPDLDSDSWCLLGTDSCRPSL
Chain of PLK2, construct: aa57-360, human (Q9NYY3 57-360, looked up): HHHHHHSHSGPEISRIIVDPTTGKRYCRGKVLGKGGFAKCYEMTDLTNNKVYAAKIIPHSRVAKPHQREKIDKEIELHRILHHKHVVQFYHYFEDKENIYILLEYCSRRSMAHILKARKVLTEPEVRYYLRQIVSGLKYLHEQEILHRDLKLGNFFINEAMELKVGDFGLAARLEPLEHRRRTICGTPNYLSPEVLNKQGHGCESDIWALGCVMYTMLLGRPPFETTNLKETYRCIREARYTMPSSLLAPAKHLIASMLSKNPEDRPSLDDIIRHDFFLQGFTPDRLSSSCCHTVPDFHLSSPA

NEK9, construct: Full length (D347-732), human (from UniProt Q8TD19)
relative phosphorylation
Settings	at +1	at +2	at +3	at +4	at -1	at -2	at -3	at -4	at -5
A fixed	0.751	1.08	1.02	1.03	1	1.33	1.05	1.11	1.19
D fixed	0.268	0.44	0.594	0.754	0.889	1.27	0.574	1.06	1.04
E fixed	0.256	0.294	0.552	0.851	0.854	0.851	0.564	0.889	0.918
F fixed	1.37	0.606	1.04	0.775	0.843	1	1.43	0.9	1.07
G fixed	0.844	1.04	1.22	1.43	0.819	1.28	1.22	1.3	1.3
H fixed	0.912	1.42	1.14	1.18	1.21	1.08	0.953	1.09	1.02
I fixed	1.49	0.842	0.95	0.744	0.759	0.584	0.488	0.78	0.755
K fixed	0.951	1.69	1.12	1.25	1.12	0.543	0.73	1.01	1.01
L fixed	1.27	0.611	1.01	0.839	1.28	1.21	1.7	0.96	0.824
M fixed	1.54	0.782	0.956	0.899	1.39	1.53	2.32	1.12	0.953
N fixed	0.749	1.19	0.97	1.06	1.3	1.59	0.944	0.928	1.04
P fixed	0.209	0.57	0.921	1.12	0.426	0.667	0.937	1.12	0.991
Q fixed	1.14	0.892	0.943	1.01	1.12	0.996	0.808	0.85	0.764
R fixed	1.42	2.78	1.2	1.38	1.24	0.591	0.748	0.879	1.06
V fixed	1.3	0.894	0.887	0.696	0.688	0.461	0.407	0.688	0.895
W fixed	1.14	0.755	1.23	1.13	0.941	1.02	1.14	1.36	1.22
Y fixed	1.39	1.12	1.24	0.855	1.12	0.996	1	0.963	0.936
pThr fixed	0.614	0.45	0.557	0.85	0.364	0.573	0.816	0.901	0.836
pTyr fixed	0.517	0.399	0.599	0.722	1.01	0.91	0.826	0.787	0.886

PLK2, construct: aa57-360, human (from UniProt Q9NYY3)
relative phosphorylation
Settings	at +1	at +2	at +3	at +4	at -1	at -2	at -3	at -4	at -5
A fixed	0.569	0.927	0.69	0.793	0.879	0.734	0.559	0.825	0.975
D fixed	0.52	2.18	2.27	1.98	2.51	3.13	1.77	1.74	1.46
E fixed	0.87	2.23	2.59	2.2	1.61	2.35	7.3	2.19	1.53
F fixed	3.75	0.919	0.861	0.916	0.658	0.508	0.751	1.06	1.37
G fixed	0.529	0.54	0.81	0.842	0.587	0.655	0.583	0.9	1.25
H fixed	0.628	0.999	0.914	0.988	1.16	0.8	0.625	0.888	1.11
I fixed	1.3	0.971	0.835	0.974	0.697	0.558	0.318	0.888	0.806
K fixed	0.452	0.227	0.358	0.442	0.634	0.3	0.292	0.638	0.722
L fixed	1.02	0.707	0.874	0.982	0.701	1.23	0.608	1.11	0.844
M fixed	1.78	1.01	0.85	0.869	0.874	1.24	0.763	0.866	0.842
N fixed	0.567	0.99	1.05	0.866	1.24	1.88	0.687	1	0.955
P fixed	0.159	0.532	0.609	1.07	1.46	0.736	0.482	0.928	0.955
Q fixed	1.2	0.752	0.987	0.877	0.833	0.883	0.717	0.846	0.692
R fixed	0.691	0.438	0.396	0.441	0.79	0.465	0.333	0.609	0.694
V fixed	0.994	0.841	0.765	0.554	0.899	0.391	0.269	0.775	0.757
W fixed	0.683	1.31	1.08	1.24	0.469	0.458	0.48	0.907	0.977
Y fixed	1.28	1.44	1.05	0.968	0.997	0.676	0.459	0.845	1.06
pThr fixed	1.33	2.29	2.39	3.26	1.07	1.08	1.05	1.68	1.04
pTyr fixed	1.4	11	2.89	3.61	4.55	0.912	1.2	1.6	1.63
